US20180318418A1 (UNIQUEST, published 2018)

Key:
Assay in all cases: dot blot, peptide on PVDF membrane
peptide 08/08-2′ = biological target: T1, peptide 08/08-2′ (Epstein-Barr virus)
T1 construct: 7-mer derived from 08/08′ (BARF1 28-38)
T1 peptide: TSYWRRV

[1] = biological target: T2, peptide 05/08 (BARF1 201-221) (Epstein-Barr virus)
T2 construct: Spotted on PVDF membrane for dot blot; also called 05/08201-221
T2 peptide: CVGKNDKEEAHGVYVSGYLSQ

[2] = biological target: T3, peptide 06/08 (BARF1 104-120) (Epstein-Barr virus)
T3 construct: Spotted on PVDF membrane for dot blot; also called 06/08104-120
T3 peptide: CRMKLGETEVTKQEHLS

peptide 08/08-2 = biological target: T4, peptide 08/08-2 (Epstein-Barr virus)
T4 construct: 8-mer derived from 08/08 (BARF1 27-40)
T4 peptide: TSYWRRVS

Measured: binding result

B1: anti-BARF1 3D4 monoclonal antibody (antibody, V domains shown)
VH: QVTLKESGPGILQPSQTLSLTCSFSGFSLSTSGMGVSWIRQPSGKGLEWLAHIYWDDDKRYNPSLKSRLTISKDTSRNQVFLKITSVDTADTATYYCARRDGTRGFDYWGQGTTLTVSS
VL: QIVLTQSPAIMSASLGERVTMTCTATSSVSSSYLHWYQQKPGSSPKLWIYSTSNLASGVPARFSGSGSGTSYSLTISSMEAEDAATYYCHQYHRSPPWTFGGGTKLEIK
notes: also called 3D4 mAb; clone 3D4
no binding (tested: about 10 µg/spot): all assays above
